From the Human Domainome abundance scans (Beltran et al. 2025)
± gives the uncertainty stated by the source.

B1: Transcription factor SOX-11, residues 50 to 117; numbered along this chain, P35716 (parent)
chain: KRPMNAFMVWSKIERRKIMEQSPDMHNAEISKRLGKRWKMLKDSEKIPFIREAERLRLKHMADYPDYK

Variants of: B1
Test: abundance fitness (aPCA) (normalised: wild type 0, dead -1); higher = more abundant; growth selection in yeast, the domain comes from the species named
Conditions: Homo sapiens

| Variant | abundance fitness |
| --- | --- |
| E14H | -0.577 ± 0.13 |
| E14K | -0.953 ± 0.41 |
| E14Q | -0.247 ± 0.19 |
| E14M | -0.352 ± 0.17 |
| E14N | -0.338 ± 0.089 |
| E14C | -0.533 ± 0.11 |
| E14Y | -0.696 ± 0.11 |
| E14L | -1.05 ± 0.14 |
| E14P | -0.739 ± 0.22 |
| E14I | -0.722 ± 0.11 |
| E14F | -0.645 ± 0.088 |
| E14V | -0.895 ± 0.084 |
| E14T | -1.16 ± 0.2 |
| E14S | -0.488 ± 0.067 |
| E14D | -0.861 ± 0.12 |
| E14W | -0.734 ± 0.45 |
| E14G | -0.771 ± 0.089 |
| E14A | -0.615 ± 0.076 |
| S31G | -0.278 ± 0.058 |
| S31W | -0.3 ± 0.12 |
| S31A | 0.143 ± 0.056 |
| S31P | -0.855 ± 0.18 |
| S31F | -0.246 ± 0.064 |
| S31D | 0.176 ± 0.059 |

| Variant | abundance fitness |
| --- | --- |
| S31E | 0.489 ± 0.11 |
| S31V | -0.064 ± 0.051 |
| S31C | -0.2 ± 0.074 |
| S31R | -0.311 ± 0.082 |
| S31N | 0.195 ± 0.054 |
| S31Q | -0.213 ± 0.13 |
| S31M | -0.333 ± 0.14 |
| S31H | -0.244 ± 0.084 |
| S31L | -0.2 ± 0.063 |
| S31K | -0.096 ± 0.14 |
| S31T | 0.029 ± 0.068 |
| S31Y | -0.262 ± 0.067 |
| P23Y | -0.665 ± 0.09 |
| P23N | -0.843 ± 0.11 |
| P23M | -0.85 ± 0.24 |
| P23D | -0.739 ± 0.093 |
| P23A | -0.391 ± 0.079 |
| P23V | -0.598 ± 0.07 |
| P23L | -0.287 ± 0.068 |
| P23W | -1.09 ± 0.24 |
| P23S | -0.453 ± 0.058 |
| P23R | -0.74 ± 0.091 |
| P23Q | -0.706 ± 0.24 |
| P23K | -1.28 ± 0.44 |

| Variant | abundance fitness |
| --- | --- |
| P23H | -0.791 ± 0.1 |
| P23G | -0.431 ± 0.064 |
| P23I | -0.869 ± 0.095 |
| P23E | -0.49 ± 0.19 |
| I30Y | -0.596 ± 0.065 |
| I30V | 0.039 ± 0.051 |
| I30K | -1.09 ± 0.26 |
| I30R | -0.879 ± 0.11 |
| I30W | -0.611 ± 0.14 |
| I30H | -0.733 ± 0.097 |
| I30D | -0.779 ± 0.11 |
| I30Q | -0.797 ± 0.23 |
| I30P | -0.708 ± 0.13 |
| I30C | -0.304 ± 0.053 |
| I30M | -0.711 ± 0.17 |
| I30S | -0.682 ± 0.071 |
| I30G | -0.67 ± 0.089 |
| I30N | -0.701 ± 0.092 |
| I18W | -0.256 ± 0.11 |
| I18R | -0.945 ± 0.12 |
| I18V | -0.307 ± 0.059 |
| I18A | -0.521 ± 0.11 |
| I18H | -0.918 ± 0.17 |
| I18E | -0.355 ± 0.17 |

| Variant | abundance fitness |
| --- | --- |
| I18Y | -0.34 ± 0.075 |
| I18Q | -0.869 ± 0.33 |
| I18T | -0.884 ± 0.17 |
| I18K | -0.856 ± 0.29 |
| I18N | -0.625 ± 0.097 |
| I18G | -0.772 ± 0.075 |
| I18D | -0.741 ± 0.12 |
| I18P | -0.619 ± 0.21 |
| I18C | -0.714 ± 0.1 |
| I18F | -0.688 ± 0.1 |
| I18S | -0.732 ± 0.083 |
| H26D | 0.414 ± 0.055 |
| H26R | -0.106 ± 0.057 |
| H26I | -0.266 ± 0.059 |
| H26T | 0.453 ± 0.058 |
| H26L | -0.146 ± 0.054 |
| H26F | -0.497 ± 0.062 |
| H26N | 0.277 ± 0.052 |
| H26Q | 0.064 ± 0.095 |
| H26C | 0.226 ± 0.047 |
| H26G | 0.22 ± 0.047 |
| H26W | -0.388 ± 0.2 |
| H26V | -0.283 ± 0.057 |
| H26P | 0.205 ± 0.065 |

| Variant | abundance fitness |
| --- | --- |
| H26K | 0.195 ± 0.1 |
| H26M | -0.194 ± 0.15 |
| H26S | 0.406 ± 0.041 |
| H26E | 0.383 ± 0.14 |
| H26Y | -0.368 ± 0.059 |
| H26A | 0.158 ± 0.062 |
| D24Q | -0.147 ± 0.32 |
| D24T | -0.22 ± 0.08 |
| D24L | -0.507 ± 0.078 |
| D24M | -0.63 ± 0.32 |
| D24N | -0.128 ± 0.071 |
| D24F | -0.435 ± 0.066 |
| D24G | -0.105 ± 0.057 |
| D24K | -0.578 ± 0.23 |
| D24Y | -0.35 ± 0.062 |
| D24P | -0.836 ± 0.15 |
| D24W | -0.337 ± 0.16 |
| D24H | -0.26 ± 0.079 |
| D24A | -0.093 ± 0.069 |
| D24C | -0.435 ± 0.074 |
| D24V | -0.643 ± 0.085 |
| D24E | -0.164 ± 0.17 |
| D24R | -0.456 ± 0.091 |
| D24I | -0.538 ± 0.09 |

| Variant | abundance fitness |
| --- | --- |
| E29G | -0.792 ± 0.076 |
| E29P | -0.866 ± 0.22 |
| E29Y | -0.969 ± 0.11 |
| E29Q | -0.517 ± 0.19 |
| E29I | -0.815 ± 0.095 |
| E29T | -0.753 ± 0.12 |
| E29C | -0.767 ± 0.087 |
| E29L | -0.798 ± 0.093 |
| E29K | -0.363 ± 0.3 |
| E29H | -0.666 ± 0.1 |
| E29A | -0.436 ± 0.078 |
| E29S | -0.638 ± 0.07 |
| E29R | -1.1 ± 0.13 |
| N27S | 0.07 ± 0.049 |
| N27W | 0.105 ± 0.1 |
| N27C | -0.08 ± 0.055 |
| N27E | 0.333 ± 0.11 |
| N27Y | -0.213 ± 0.063 |
| N27D | 0.403 ± 0.06 |
| N27T | -0.033 ± 0.07 |
| N27R | -0.341 ± 0.07 |
| N27F | -0.128 ± 0.056 |
| N27K | -0.178 ± 0.15 |
| N27L | -0.279 ± 0.062 |

| Variant | abundance fitness |
| --- | --- |
| N27P | 0.4 ± 0.065 |
| N27A | 0.177 ± 0.064 |
| N27M | -0.287 ± 0.15 |
| N27V | -0.178 ± 0.055 |
| N27H | 0.139 ± 0.054 |
| N27G | -0.096 ± 0.056 |
| N27Q | 0.205 ± 0.11 |
| E20Y | -0.781 ± 0.1 |
| E20Q | -0.83 ± 0.34 |
| E20S | -0.36 ± 0.063 |
| E20I | -0.569 ± 0.085 |
| E20H | -0.319 ± 0.14 |
| E20N | -0.236 ± 0.08 |
| E20A | -0.348 ± 0.11 |
| E20W | -0.577 ± 0.17 |
| E20M | -0.723 ± 0.28 |
| E20R | -0.705 ± 0.12 |
| E20F | -0.496 ± 0.067 |
| E20T | -0.185 ± 0.13 |
| E20L | -0.27 ± 0.079 |
| E20P | -0.812 ± 0.16 |
| Q21R | -0.235 ± 0.068 |
| Q21F | -0.661 ± 0.081 |
